Laboratory results as given in US20230002480A1.

Legend:
Assay in all cases: cell-based or functional assay
[1] = target: HIV-1 Env of pseudovirus HIV-001428-2.42 (HIV-1)
[2] = target: HIV-1 Env of pseudovirus MS208.A1 (HIV-1)
[3] = target: HIV-1 Env of pseudovirus WITO4160.33 (HIV-1)
[4] = target: HIV-1 Env of pseudovirus CAAN5342.A2 (HIV-1)
[5] = target: HIV-1 Env of pseudovirus AC10.0.29 (HIV-1)
[6] = target: HIV-1 Env of pseudovirus Q259.d2.17 (HIV-1)
[7] = target: HIV-1 Env of pseudovirus CNE21 (HIV-1)
[8] = target: HIV-1 Env of pseudovirus CAP210.2.00.E8 (HIV-1)
[9] = target: HIV-1 Env of pseudovirus CNE52 (HIV-1)
[10] = target: HIV-1 Env of pseudovirus HIV-16845-2.22 (HIV-1)
[11] = target: HIV-1 Env of pseudovirus REJO4541.67 (HIV-1)
[12] = target: HIV-1 Env of pseudovirus Ce703010054_2A2 (HIV-1)
[13] = target: HIV-1 Env of pseudovirus WEAU_d15_410_787 (HIV-1)
[14] = target: HIV-1 Env of pseudovirus CNE17 (HIV-1)
[15] = target: HIV-1 Env of pseudovirus ZM247v1(Rev-) (HIV-1)
[16] = target: HIV-1 Env of pseudovirus Ce0393_C3 (HIV-1)
[17] = target: HIV-1 Env of pseudovirus Ce1172_H1 (HIV-1)
[18] = target: HIV-1 Env of pseudovirus Ce2060_G9 (HIV-1)
[19] = target: HIV-1 Env of pseudovirus Q461.e2 (HIV-1)
[20] = target: HIV-1 Env of pseudovirus 6240_08_TA5_4622 (HIV-1)
[21] = target: HIV-1 Env of pseudovirus 6535.3 (HIV-1)
[22] = target: HIV-1 Env of pseudovirus RHPA4259.7 (HIV-1)
[23] = target: HIV-1 Env of pseudovirus ZM249M.PL1 (HIV-1)
[24] = target: HIV-1 Env of pseudovirus 7030102001E5(Rev-) (HIV-1)
[25] = target: HIV-1 Env of pseudovirus Ce1176_A3 (HIV-1)
[26] = target: HIV-1 Env of pseudovirus TRO.11 (HIV-1)

Substance: N49P9 (antibody)
- IC50 [1]: 0.022 µg/mL
- IC80 [1]: 0.106 µg/mL
- MPI [1]: 99
- IC50 [2]: 0.08 µg/mL
- IC80 [2]: 0.294 µg/mL
- MPI [2]: 100
- IC50 [3]: 0.058 µg/mL
- IC80 [3]: 0.165 µg/mL
- MPI [3]: 100
- IC50 [4]: 2.09 µg/mL
- IC80 [4]: 7.38 µg/mL
- MPI [4]: 100
- IC50 [5]: 0.285 µg/mL
- IC80 [5]: 0.986 µg/mL
- MPI [5]: 100
- IC50 [6]: 0.807 µg/mL
- IC80 [6]: > 50 µg/mL
- MPI [6]: 74
- IC50 [7]: > 50 µg/mL
- IC80 [7]: > 50 µg/mL
- MPI [7]: 36
- IC50 [8]: > 50 µg/mL
- IC80 [8]: > 50 µg/mL
- MPI [8]: 32
- IC50 [9]: 0.026 µg/mL
- IC80 [9]: 0.09 µg/mL
- MPI [9]: 100
- IC50 [10]: 1.09 µg/mL
- IC80 [10]: 9.96 µg/mL
- MPI [10]: 98
- IC50 [11]: 0.071 µg/mL
- IC80 [11]: 0.291 µg/mL
- MPI [11]: 100
- IC50 [12]: 0.187 µg/mL
- IC80 [12]: 0.898 µg/mL
- MPI [12]: 98
- IC50 [13]: 0.063 µg/mL
- IC80 [13]: 0.162 µg/mL
- MPI [13]: 100
- IC50 [14]: 0.364 µg/mL
- IC80 [14]: 1.7 µg/mL
- MPI [14]: 100
- IC50 [15]: 0.622 µg/mL
- IC80 [15]: 3.3 µg/mL
- MPI [15]: 100
- IC50 [16]: 0.189 µg/mL
- IC80 [16]: 0.595 µg/mL
- MPI [16]: 100
- IC50 [17]: 8.8 µg/mL
- IC80 [17]: > 50 µg/mL
- MPI [17]: 70
- IC50 [18]: 0.419 µg/mL
- IC80 [18]: 2.19 µg/mL
- MPI [18]: 100
- IC50 [19]: 0.271 µg/mL
- IC80 [19]: 0.953 µg/mL
- MPI [19]: 100
- IC50 [20]: 0.308 µg/mL
- IC80 [20]: 1.26 µg/mL
- MPI [20]: 100
- IC50 [21]: 0.552 µg/mL
- IC80 [21]: 2.26 µg/mL
- MPI [21]: 100
- IC50 [22]: 0.023 µg/mL
- IC80 [22]: 0.078 µg/mL
- MPI [22]: 100
- IC50 [23]: 0.152 µg/mL
- IC80 [23]: 0.801 µg/mL
- MPI [23]: 97
- IC50 [24]: 0.453 µg/mL
- IC80 [24]: 2.03 µg/mL
- MPI [24]: 100
- IC50 [25]: 0.258 µg/mL
- IC80 [25]: 0.919 µg/mL
- MPI [25]: 100
- IC50 [26]: 0.044 µg/mL
- IC80 [26]: 0.177 µg/mL
- MPI [26]: 100

Substance: N49P9.1 (antibody)
- IC50 [1]: 0.037 µg/mL
- IC80 [1]: 0.12 µg/mL
- MPI [1]: 99
- IC50 [2]: 0.082 µg/mL
- IC80 [2]: 0.248 µg/mL
- MPI [2]: 100
- IC50 [3]: 0.051 µg/mL
- IC80 [3]: 0.241 µg/mL
- MPI [3]: 100
- IC50 [4]: 2.16 µg/mL
- IC80 [4]: 8 µg/mL
- MPI [4]: 99
- IC50 [5]: 0.36 µg/mL
- IC80 [5]: 1.88 µg/mL
- MPI [5]: 99
- IC50 [6]: > 50 µg/mL
- IC80 [6]: > 50 µg/mL
- MPI [6]: 48
- IC50 [7]: > 50 µg/mL
- IC80 [7]: > 50 µg/mL
- MPI [7]: 15
- IC50 [8]: > 50 µg/mL
- IC80 [8]: > 50 µg/mL
- MPI [8]: 2
- IC50 [9]: 0.043 µg/mL
- IC80 [9]: 0.122 µg/mL
- MPI [9]: 100
- IC50 [10]: 2.13 µg/mL
- IC80 [10]: 10.7 µg/mL
- MPI [10]: 98
- IC50 [11]: 0.064 µg/mL
- IC80 [11]: 0.231 µg/mL
- MPI [11]: 100
- IC50 [12]: 0.433 µg/mL
- IC80 [12]: 3.18 µg/mL
- MPI [12]: 96
- IC50 [13]: 0.068 µg/mL
- IC80 [13]: 0.253 µg/mL
- MPI [13]: 100
- IC50 [14]: 0.251 µg/mL
- IC80 [14]: 1.23 µg/mL
- MPI [14]: 100
- IC50 [15]: 1.88 µg/mL
- IC80 [15]: 17.8 µg/mL
- MPI [15]: 87
- IC50 [16]: 0.284 µg/mL
- IC80 [16]: 1.22 µg/mL
- MPI [16]: 100
- IC50 [17]: > 50 µg/mL
- IC80 [17]: > 50 µg/mL
- MPI [17]: 42
- IC50 [18]: 0.781 µg/mL
- IC80 [18]: 3.54 µg/mL
- MPI [18]: 100
- IC50 [19]: 0.363 µg/mL
- IC80 [19]: 1.15 µg/mL
- MPI [19]: 100
- IC50 [20]: 0.716 µg/mL
- IC80 [20]: 2.55 µg/mL
- MPI [20]: 100
- IC50 [21]: 0.232 µg/mL
- IC80 [21]: 2.06 µg/mL
- MPI [21]: 100
- IC50 [22]: 0.021 µg/mL
- IC80 [22]: 0.066 µg/mL
- MPI [22]: 100
- IC50 [23]: 0.206 µg/mL
- IC80 [23]: 1.92 µg/mL
- MPI [23]: 95
- IC50 [24]: 0.635 µg/mL
- IC80 [24]: 2.02 µg/mL
- MPI [24]: 100
- IC50 [25]: 0.44 µg/mL
- IC80 [25]: 0.998 µg/mL
- MPI [25]: 100
- IC50 [26]: 0.052 µg/mL
- IC80 [26]: 0.196 µg/mL
- MPI [26]: 100
